From patent publication US20090092544A1

Tests used:
[1] = molecular target: ROBO1 expressed on ROBO1-expressing HEK293 cells (ROBO1/pcDNA3.1, C-terminal V5 tag) (human) (UniProt Q9Y6N7); assay: cell-based or functional assay
[2] = molecular target: ROBO1 expressed on ROBO1-expressing HEK293 cells (ROBO1/pcDNA3.1, C-terminal V5 tag) (human) (UniProt Q9Y6N7); assay: FACS on ROBO1-expressing HEK293 cells, signal intensity digitized

UniProt Q9Y6N7, sequence (Q9Y6N7 26-1651): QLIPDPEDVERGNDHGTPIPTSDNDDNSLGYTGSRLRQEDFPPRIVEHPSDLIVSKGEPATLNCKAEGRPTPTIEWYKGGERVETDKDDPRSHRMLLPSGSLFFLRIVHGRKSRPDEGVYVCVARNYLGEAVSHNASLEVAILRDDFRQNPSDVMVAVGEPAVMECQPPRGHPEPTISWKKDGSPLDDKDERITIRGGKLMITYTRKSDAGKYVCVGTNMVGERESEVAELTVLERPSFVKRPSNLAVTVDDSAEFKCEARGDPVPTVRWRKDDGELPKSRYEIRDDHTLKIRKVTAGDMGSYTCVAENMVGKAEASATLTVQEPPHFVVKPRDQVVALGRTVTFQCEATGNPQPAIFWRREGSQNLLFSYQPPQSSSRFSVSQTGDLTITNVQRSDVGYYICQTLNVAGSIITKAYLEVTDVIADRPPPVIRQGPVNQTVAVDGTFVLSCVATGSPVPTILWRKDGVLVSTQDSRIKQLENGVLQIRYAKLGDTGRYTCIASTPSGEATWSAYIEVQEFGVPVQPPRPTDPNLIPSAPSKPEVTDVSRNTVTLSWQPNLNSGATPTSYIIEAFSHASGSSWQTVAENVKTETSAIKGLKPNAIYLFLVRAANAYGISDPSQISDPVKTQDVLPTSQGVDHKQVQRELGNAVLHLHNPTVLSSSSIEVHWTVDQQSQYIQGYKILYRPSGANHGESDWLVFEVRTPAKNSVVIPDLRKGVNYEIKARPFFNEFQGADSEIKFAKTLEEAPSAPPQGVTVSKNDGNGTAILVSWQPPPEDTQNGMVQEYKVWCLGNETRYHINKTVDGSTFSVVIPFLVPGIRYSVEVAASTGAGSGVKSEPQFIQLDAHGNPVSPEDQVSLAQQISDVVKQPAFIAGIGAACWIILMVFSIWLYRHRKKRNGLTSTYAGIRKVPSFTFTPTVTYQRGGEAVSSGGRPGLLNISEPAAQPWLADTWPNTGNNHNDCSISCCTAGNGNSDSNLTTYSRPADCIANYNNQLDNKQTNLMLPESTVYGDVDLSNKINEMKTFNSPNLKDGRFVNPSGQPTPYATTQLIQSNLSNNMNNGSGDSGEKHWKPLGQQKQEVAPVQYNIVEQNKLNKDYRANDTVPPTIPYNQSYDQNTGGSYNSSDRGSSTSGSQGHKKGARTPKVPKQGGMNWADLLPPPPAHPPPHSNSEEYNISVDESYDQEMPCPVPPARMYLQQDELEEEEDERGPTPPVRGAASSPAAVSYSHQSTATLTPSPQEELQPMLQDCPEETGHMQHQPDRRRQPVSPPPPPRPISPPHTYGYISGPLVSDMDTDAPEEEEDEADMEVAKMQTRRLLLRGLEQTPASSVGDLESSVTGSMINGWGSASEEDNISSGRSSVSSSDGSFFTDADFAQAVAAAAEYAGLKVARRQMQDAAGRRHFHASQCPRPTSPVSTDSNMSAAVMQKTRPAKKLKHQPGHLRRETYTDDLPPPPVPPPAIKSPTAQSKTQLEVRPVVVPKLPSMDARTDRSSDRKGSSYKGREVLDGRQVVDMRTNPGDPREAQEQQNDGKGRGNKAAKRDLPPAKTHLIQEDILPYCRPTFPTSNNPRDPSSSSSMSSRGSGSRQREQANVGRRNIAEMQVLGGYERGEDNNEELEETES

B1: B5209B (antibody, from another filing, mouse IgG2b)
scFv: MAEVQLVESGGGVVQPGGSLKLSCAASGFTFSTYDMSWVRQTPDKRLELVATINSNGGSTYYPDSVKGRFTSSRDNAKNILYLQMSSLKSEDTAMYYCAREALLRPPYYALDYWGQGTSVTVSSAGGGGSGGGGSGGGGSGGGGSDILDIQMTQSPASLSASVGETVTITCGASENIYGALTWYQRKQGKSPQLLIYGAINLADDKSSRFSGSGSGRQYSLKISSLHPDDVATYYCQNVLSTPFTFGSGTKLEIKAAGHHHHHH
[1]
  CDC (%), measured value at 0.1 ug/mL: 87.2%
[2]
  EC50: 3.1 nM
